# Measurements published in patent US20220213176A1.
# Read-outs that look alike come from different tables or passages of the source.
# Legend:
# Details in all cases: remark: other sources report otherwise
# [1] = target: T1, SARS-CoV-2 spike receptor binding domain, wild-type (S-RBD) (SARS-CoV-2), P0DTC2
# [2] = target: full-length SARS-CoV-2 spike (SARS-CoV-2), P0DTC2
# [3] = target: N501Y S-RBD (SARS-CoV-2), P0DTC2
# [4] = target: SARS-CoV-2 spike D215H (SARS-CoV-2), P0DTC2
# [5] = target: SARS-CoV-2 spike D614G (SARS-CoV-2), P0DTC2
# [6] = target: SARS-CoV-2 spike E484K+N501Y+D614G (SARS-CoV-2), P0DTC2
# [7] = target: T2, SARS-CoV-2 spike K417N+E484K+N501Y+D614G (SARS-CoV-2), P0DTC2
# [8] = target: SARS-CoV-2 spike K417N+N501Y+D614G (SARS-CoV-2), P0DTC2
# [9] = target: SARS-CoV-2 spike N439K+D614G (SARS-CoV-2), P0DTC2
# [10] = target: SARS-CoV-2 spike N501Y+D614G (SARS-CoV-2), P0DTC2
# [11] = target: SARS-CoV-2 spike S247R (SARS-CoV-2), P0DTC2
# [12] = target: N501Y S-RBD (SARS-CoV-2), P0DTC2; assay: BLI (Octet), N501Y S-RBD amine coupled on AR2G sensor, 1:1 fit
# [13] = target: SARS-CoV-2 spike E484K+N501Y+D614G (SARS-CoV-2), P0DTC2; assay: FACS MFI on transfected HEK293T cells, against D614G spike (mut 3)
# [14] = target: T2, SARS-CoV-2 spike …; assay: as above
# [15] = target: T1, SARS-CoV-2 spike receptor binding …; assay: BLI (Octet), S-RBD amine coupled on AR2G sensor, IgG4 in solution, 1:1 fit
# [16] = target: N501Y S-RBD (SARS-CoV-2), P0DTC2; assay: BLI (Octet), N501Y S-RBD amine-coupled on AR2G sensor, 1:1 binding model
# [17] = target: T1, SARS-CoV-2 spike receptor binding …; assay: BLI (Octet), S-RBD amine-coupled on AR2G sensor, 1:1 binding model [cont'd) h]
# [18] = target: N501Y S-RBD (SARS-CoV-2), P0DTC2; assay: BLI (Octet), biotinylated N501Y S-RBD on SA sensor, 1:1 fit
# [19] = target: B.1.351 S-RBD (SARS-CoV-2), P0DTC2; assay: BLI (Octet RED96), biotin B.1.351 S-RBD on SA sensor, 1:1 fit
# [20] = target: T1, SARS-CoV-2 spike receptor binding …; assay: BLI (Octet), biotinylated S-RBD on SA sensor, IgG4 in solution, 1:1 fit
# [21] = target: T1, SARS-CoV-2 spike receptor binding …; assay: BLI (Octet RED96), biotin S-RBD on SA sensor, 1:1 fit; dimer S-E6, WT S-RBD
# [22] = target: N501Y S-RBD (SARS-CoV-2), P0DTC2; assay: BLI (Octet), biotinylated N501Y S-RBD on SA biosensor, 1:1 binding model
# [23] = target: T1, SARS-CoV-2 spike receptor binding …; assay: BLI (Octet RED96), biotinylated WT S-RBD on SA biosensor, 1:1 binding model
# [24] = target: T1, SARS-CoV-2 spike receptor binding …; assay: BLI (Octet), biotinylated S-RBD on SA biosensor, 1:1 binding model [cont'd) h]
# [25] = target: B.1.351 S-RBD (SARS-CoV-2), P0DTC2; assay: BLI (Octet RED96), biotinylated B.1.351 S-RBD on SA biosensor, 1:1 binding model
Binder,IC50 [1],MFI [2],koff [3],kon [3],MFI [4],MFI [5],MFI [6],MFI [7],MFI [8],MFI [9],MFI [10],MFI [11],further results
"S-D4 (antibody, V domains shown) VH: QVQLQESGGGVVQPGRSLRLSCEVSGFTFSDYGMHWVRQAPGKGLEWVAVIWSEGSTEYYADSVKGRFTISRDNSKDTLYLQMNSLRAEDTAVYYCARPGYPTSTDRSPAAAGARQYYYYGMDVWGQGTTVTVSS VL: NFMLTQPHSVSESPGKTVTISCTRSGGSGAANYVQWYQQRPGSSPTTLIYEDSRRPPGVPDRFSGSVDTSSNSASLTISGLQTEDEADYYCQSYDSSNHVVFGGGTKLTVLG",7.1 nM,43000,4.2e-05 s⁻¹,440000 M⁻¹ s⁻¹,411000,414000,138000,147000,155000,360000,281000,335000,Kd [12]: 0.097 nM; MFI as percent of mut 3 [13]: 33.2 % of mut 3; MFI as percent of mut 3 [14]: 35.6 % of mut 3; Kd [15]: 0.12 nM; koff [16]: 4.2e-05 s⁻¹; kon [16]: 440000 M⁻¹ s⁻¹; koff [17]: 4.6e-05 s⁻¹; kon [17]: 390000 M⁻¹ s⁻¹
"S-E6 (antibody, V domains shown) VH: QVTLRESGPGLVKPSETLSLTCAVSGGSLSSVNYYWSWIRQHPGKGLEWIGYIYYSGSTNYNPSLKSRVTMSLDTSKNQFSLKLSSVTAADTAVYYCATPGAIMGALHIWGQGTLVTVSS VL: QAVLTQPSSASSTPGQRVIISCSGSSSNIGSNTVSWYQQVPGAAPKLLIYFDYRRPSGVPDRFSGTRSGTSASLGISGLQSEDEADYYCAAWDDSLSAWVFGRGTKLTVLG",12.2 nM,18200,0.00025 s⁻¹,1.2e+06 M⁻¹ s⁻¹,135000,157000,139000,141000,312000,133000,153000,109000,Kd [18]: 0.21 nM; Kd [19]: 1.58 nM; Kd [20]: 0.11 nM; Kd [21]: 0.0836 nM; koff [22]: 0.00025 s⁻¹; kon [22]: 1.2e+06 M⁻¹ s⁻¹; koff [23]: 3.37e-05 s⁻¹; kon [23]: 403000 M⁻¹ s⁻¹; koff [24]: 0.00013 s⁻¹; kon [24]: 1.2e+06 M⁻¹ s⁻¹; Kd [25]: 1.58 nM; koff [25]: 0.000915 s⁻¹; kon [25]: 581000 M⁻¹ s⁻¹
